Source: publication PMC3458539 (Nucleic Acids Research, 2012)
Residue numbers refer to the chain shown, from its start.

Legend:
native MS = target: the molecule itself; assay: native MS
SEC = target: the molecule itself; assay: SEC

B1: Vibrio cholerae Hfq (wild-type) (natural protein)
chain: MAKGQSLQDPFLNALRRERIPVSIYLVNGIKLQGQIESFDQFVILLKNTVNQMVYKHAISTVVPARPVSHHSGDRPASDRPAEKSEE
Q: Which “stoichiometry N” value (native MS) does the source give for B1 here?
A: 6

B2: VcHfqY25D (distal face RNA-binding mutant of Vibrio cholerae Hfq) (natural protein)
chain: B1 chain with Y25D
Q: B2 was tested. Which “stoichiometry N” value (SEC) did it give?
A: 6

B3: VcHfqK56A (proximal face RNA-binding mutant of Vibrio cholerae Hfq) (natural protein)
chain: B1 chain with K56A
Q: Which “stoichiometry N” value (SEC) does the source give for B3 here?
A: 6
